# From patent publication US12194082B2, “Compositions and methods for treatment of homocystinuria” (THE REGENTS OF THE UNIVERSITY OF COLORADO, priority 2016, dated 2025)
# Like-named read-outs stand apart in the source and are kept apart here.
# Assays:
# [1] = cynomolgus monkey, in vivo
# Protocol: (§1) The pharmacokinetic (PK) parameters were calculated using a non-compartmental curve stripping model which resolves a curve into a series of exponential terms corresponding to the absorption, distribution and elimination phases occurring during the time course of the enzyme in the blood. The curve stripping approach assumes that the disposition phases of the drug follow apparent first-order kinetics, which is evidenced by the linearity in the terminal portion of a semi-log plot. These calculations were made using a modeling program called PK Solutions 2.0 (Summit Solutions, Montrose, CO) using the mean plasma enzyme activity for each route of administration. The bioavailability was calculated by dividing the area under the curve (AUC) for the SC or IP route by the AUC observed after IV administration.
# For the single dose PK study, three experimental groups of 4 (n=2M+2F) monkeys each were used to conduct the experiments. The first group received 2 mg/kg 20NHS PEG-htCBS C15S via IV injection. Blood was collected at 0, 0.083, 0.16, 0.25, 0.5, 1, 2, 4, 8, 24, 72, 120, and 192 hours post IV injection. The second and third groups received either 2 mg/kg or 6 mg/kg 20NHS PEG-htCBS C15S via SC injection. Blood was collected at 0, 1, 2, 4, 8, 24, 48, 72, 96, 120, 192, 240, and 336 hours post SC injection.
# [2] = system: KO mice; assay: Survival of KO mice treated with PEGylated htCBS C15S conjugates; type: in vivo, mouse
# Protocol: A Kaplan Meyer survival curve was plotted of KO mice injected three times weekly with 7.5 mg/kg htCBS C15S PEGylated with ME-200MA0B (n=24), ME-400MA (n=31=13F+18M), or ME-200GS (n=28=14F+14M), and a group of KO mice (n=44) that was injected with PBS as a control. Lactating mothers were maintained on betaine water, and after weaning, the pups (day 21) were put on regular water with no betaine. The ability of the injected enzyme to rescue KO pups was tested.
# After an initial 35 days (5 weeks) long treatment to prevent neonatal lethality of KO mice, the KO mice treated with 20NHS PEG-htCBS C15S were divided into two groups. One group (5 W) stopped receiving any treatment apart from the initial one, while the other group (CONT) continued with the same regimen for up to 120 days of age (7.5 mg/kg, SC, 3× a week).
# [3] = CBS enzyme activity assay, specific activity of pure enzyme; type: biochemical; settings: lots used in osmotic pumps
# Protocol: (§2) CBS activity was determined by a radioisotope assay with C^14-labeled serine as a substrate. Ten μl (total 490 ng) of pure htCBS in dilution buffer (0.1 M Tris-HCl pH=8.6, 1 mM DTT, 10 μM PLP, 0.5 mg/ml BSA) or 10 μl of plasma were added to 85 μl of reaction mixture containing 0.1 M Tris-HCl pH=8.6, 10 mM L-serine, 0.5 mM PLP, 0.5 mg/ml BSA and 0.3 μCi (for pure enzyme) or 0.45 μCi (for plasma) of L-[C^14(U)]-Serine. Samples were incubated for 5 min at 37° C. and reaction was initiated by addition of 5 μl of 0.2 M Hcy (10 mM final concentration). Following 30 min of incubation at 37° C., a 20 μl aliquot of the assay mixture was applied onto a grade 3 CHR Whatman (NJ, USA) paper. Assay initiation and sampling of the resulting mixture were staggered so that each reaction time was 30 minutes. Descending paper chromatography was used to isolate the radioactive product (Cth) from a labeled substrate (Ser). The C^14-cystathionine formed in the reaction was separated from C^14-serine by an overnight descending paper chromatography in 2-propanol/formic acid/H2O (75:5.7:18.9 v/v). Radioactivity in the area of the marker cystathionine (detected by staining the marker lane with ninhydrin) was determined by cutting the chromatogram into strips that were submerged in 5 ml of Opti-fluor scintillation cocktail (PerkinElmer, MA, USA) and counted in a Beckman LS-3801 scintillation counter. An enzyme-free sample was used as a blank to monitor the background radioactivity that was then subtracted from each sample. For pure enzyme, specific activity values are expressed as enzyme units (the amount of enzyme that produces 1 μmol of cystathionine/hour) per mg of CBS, and for plasma samples as units per μl plasma.
# [4] = rat, in vivo, sc
# Protocol: as §2, §1
# In order to assess the pharmacokinetics of 20NHS PEG-htCBS C15S in rats, wild-type Sprague Dawley rats were injected with a single dose of 20NHS PEG-htCBS C15S through intra-vascular (IV) or sub-cutaneous (SC) routes. The design of a third (repeated dose) PK study (groups 7-9) was adjusted to allow extraction of data after the first dose and thus their combination with a single dose PK study (groups 1-6).
# To further evaluate rats as a species for conducting long-term toxicity studies, the pharmacokinetics of 20NHS PEG-htCBS C15S was determined in three groups of Sprague Dawley rats receiving a total of 9 SC injections every 48 hours of either 4 mg/kg (low), 8 mg/kg (mid), or 24 mg/kg (high) 20NHS PEG-htCBS C15S. […] The experiment was conducted for a length of 24 days.
# [5] = system: Hcy, Cys; assay: Plasma metabolites in the I278T facial alopecia study; type: in vivo, I278T mice; settings: 3 times per week, 24 hours after injection
# Protocol: Plasma metabolites homocysteine, cystathionine and cysteine were determined by stable-isotope-dilution liquid chromatography mass spectrometry as previously described in (Allen et al., 1993, Metabolism, 42: 1448-1460). Measurements of total non-protein bound homocysteine and other aminothiols as well as of amino acids in tissue were performed as described in (Maclean et al., 2010b. Mol. Genet. Metab. 101, 153-162). Metabolites were determined by stable-isotope-dilution liquid chromatography mass spectrometry.
# The second group (n=3; 2 males, 1 female) was continuously injected with 7.5 mg/kg of 200MA0B PEG-htCBS C15S administered subcutaneously from 3 W of age until 41 weeks of age. Weight was initially monitored weekly. Physical look was recorded before the experiment and was monitored weekly or bi-weekly after the initial 6 W injection regimen. Metabolite levels were checked before the experiment and 24 hours after the last injection of initial 6 W injection regiment and then followed weekly or bi-weekly.
# The I278T mice, which were at least 120D (W17) old and had visible, fully developed facial alopecia, were split into 2 groups. […] Metabolite levels were determined prior to the treatment initiation and measured during the study 24 hours after the injection, and weight and physical look were initially monitored weekly, and later bi-weekly.
# [6] = LC/MS/MS C15S activity assay of monkey plasma samples; type: in vivo, cynomolgus monkey
# Source text: The bioanalytical method developed using LC/MS/MS for the determination of cystathionine M+4 as product of the CBS activity using cystathionine M+8 (^13C2D6) as an internal standard has been developed and validated for both monkey and human plasma samples and thus can be used to determine CBS activity in samples from pharmacokinetic and toxicology studies as well as clinical trials. The enzymatic assay was essentially performed as described in Example 1 with the following modifications. Deuterated D,L-homocysteine M+4 was used to initiate the reaction with unlabeled L-serine in the reaction mixture. After 30 min incubation at 37° C., the enzymatic reaction was stopped by acidification using 6N HCl and labeled product of the reaction (cystathionine M+4) was extracted using EZ:faast kit (Phenomenex, USA). Briefly, 50 μl of sample (calibration standard, QC sample or enzymatic reaction) was mixed in tube on ice and protected from light with 100 μl of internal standard solution (cystathionine M+8, 0.25 ng/μl) and 250 μl water. The mix was extracted with MCX cartridge columns (Waters). Eluted medium (6N ammonia in methanol) was evaporated to dryness at 45° C. The dry residue was dissolved in eluent medium of the EZ:faast kit, derivatized and liquid-liquid extracted following the kit manufacturer's protocol. The solid phase extraction was automatized with extraction plates to increase throughput and save time. Measurable concentrations of cystathionine M+4 were observed regardless of origin of the enzyme (htCBS C15S or C15S/ME-200GS present in plasma samples or controls or traces of endogenous monkey/human CBS in plasma samples). Much attention was paid to the calibration range since the incurred determinations were in the higher part of the concentration range qualified (5.00 to 1500 nM).
# Tables 12-14 below show the comparison of C15S/ME-200GS specific activity determined by LC/MS/MS using D,L-homocysteine M+4 as a substrate and by radiometric assay using L-[…] as a substrate. The enzyme's specific activity is presented in mU/μl. The “n.d.” stands for “not determined”.
substance,measurement,setting,value
20NHS PEG-htCBS C15S: htCBS C15S PEGylated with ME-200GS PEG (20 kDa linear NHS ester-activated PEG),AUC0-t/dose,"[1]; iv, 2 mg/kg",2971 ± 78 mU-h/μl/(mg/kg)
same,AUC/dose,[1]; sc,2744 (mU-h/mL)/(mg/kg)
same,cmax/dose,[1]; sc,20 (mU/μL)/(mg/kg)
same,elimination half-life (T1/2),[1]; sc,73 h
same,AUC0-t/dose,"[1]; sc, 2 mg/kg",2761 ± 160 mU-h/μl/(mg/kg)
same,cmax/dose,"[1]; sc, 2 mg/kg",20.4 ± 1.0 mU/μl/(mg/kg)
same,t1/2-A,"[1]; sc, 2 mg/kg",7.9 ± 1.0 h
same,t1/2-E,"[1]; sc, 2 mg/kg",72.9 ± 1.1 h
same,AUC0-t/dose,"[1]; sc, 6 mg/kg",2727 ± 119 mU-h/μl/(mg/kg)
same,cmax/dose,"[1]; sc, 6 mg/kg",19.2 ± 1.3 mU/μl/(mg/kg)
same,t1/2-A,"[1]; sc, 6 mg/kg",9.7 ± 1.0 h
same,t1/2-E,"[1]; sc, 6 mg/kg",72.8 ± 1.7 h
same,survival,"[2]; 7.5 mg/kg three times weekly, day 21",about 97%
same,survival of all mice,[2]; continuous 7.5 mg/kg SC 3x a week up to 120 days of age,at least 119 days
same,survival at 119 days of age,[2]; treatment terminated after initial 35 days,about 85%
same,specific activity of administered enzyme,[3],673.9 ± 13.2 U/mg
same,specific activity of administered enzyme,[3]; listed as ME-200GS PEGylated htCBS C15S,623.2 ± 16.4 U/mg
same,elimination half-life (T1/2),[4],44.5 h
same,Hcy and Cys change vs 400MA PEG-htCBS C15S,[5],decrease Hcy levels and increase Cys levels more substantially
same,"specific activity in plasma, LC/MS/MS assay","[6]; single IV 2 mg/kg, 0.083 h",88.865 mU/μl
same,"specific activity in plasma, LC/MS/MS assay","[6]; single IV 2 mg/kg, 0.167 h",81.065 mU/μl
same,"specific activity in plasma, LC/MS/MS assay","[6]; single IV 2 mg/kg, 0.25 h",80.315 mU/μl
same,"specific activity in plasma, LC/MS/MS assay","[6]; single IV 2 mg/kg, 0.5 h",81.815 mU/μl
same,"specific activity in plasma, LC/MS/MS assay","[6]; single IV 2 mg/kg, 1 h",75.415 mU/μl
same,"specific activity in plasma, LC/MS/MS assay","[6]; single IV 2 mg/kg, 2 h",71.765 mU/μl
same,"specific activity in plasma, LC/MS/MS assay","[6]; single IV 2 mg/kg, 4 h",67.415 mU/μl
same,"specific activity in plasma, LC/MS/MS assay","[6]; single IV 2 mg/kg, 8 h",61.715 mU/μl
same,"specific activity in plasma, LC/MS/MS assay","[6]; single IV 2 mg/kg, 24 h",47.815 mU/μl
same,"specific activity in plasma, LC/MS/MS assay","[6]; single IV 2 mg/kg, 72 h",28.915 mU/μl
same,"specific activity in plasma, LC/MS/MS assay","[6]; single IV 2 mg/kg, 120 h",17.180 mU/μl
same,"specific activity in plasma, LC/MS/MS assay","[6]; single IV 2 mg/kg, 192 h",8.490 mU/μl
same,"specific activity in plasma, LC/MS/MS assay","[6]; single SC 2 mg/kg, 2 h",6.479 mU/μl
same,"specific activity in plasma, LC/MS/MS assay","[6]; single SC 2 mg/kg, 4 h",11.108 mU/μl
same,"specific activity in plasma, LC/MS/MS assay","[6]; single SC 2 mg/kg, 8 h",19.913 mU/μl
same,"specific activity in plasma, LC/MS/MS assay","[6]; single SC 2 mg/kg, 48 h",32.538 mU/μl
same,"specific activity in plasma, LC/MS/MS assay","[6]; single SC 2 mg/kg, 72 h",27.888 mU/μl
same,"specific activity in plasma, LC/MS/MS assay","[6]; single SC 2 mg/kg, 96 h",20.768 mU/μl
same,"specific activity in plasma, LC/MS/MS assay","[6]; single SC 2 mg/kg, 120 h",16.958 mU/μl
same,"specific activity in plasma, LC/MS/MS assay","[6]; single SC 2 mg/kg, 192 h",9.063 mU/μl
same,"specific activity in plasma, LC/MS/MS assay","[6]; single SC 2 mg/kg, 240 h",5.908 mU/μl
same,"specific activity in plasma, LC/MS/MS assay","[6]; single SC 2 mg/kg, 336 h",2.273 mU/μl
same,"specific activity in plasma, LC/MS/MS assay","[6]; single SC 6 mg/kg, 1 h",3.065 mU/μl
same,"specific activity in plasma, LC/MS/MS assay","[6]; single SC 6 mg/kg, 2 h",7.640 mU/μl
same,"specific activity in plasma, LC/MS/MS assay","[6]; single SC 6 mg/kg, 4 h",18.365 mU/μl
same,"specific activity in plasma, LC/MS/MS assay","[6]; single SC 6 mg/kg, 8 h",41.090 mU/μl
same,"specific activity in plasma, LC/MS/MS assay","[6]; single SC 6 mg/kg, 24 h",85.190 mU/μl
same,"specific activity in plasma, LC/MS/MS assay","[6]; single SC 6 mg/kg, 48 h",86.090 mU/μl
same,"specific activity in plasma, LC/MS/MS assay","[6]; single SC 6 mg/kg, 72 h",74.840 mU/μl
same,"specific activity in plasma, LC/MS/MS assay","[6]; single SC 6 mg/kg, 96 h",59.940 mU/μl
same,"specific activity in plasma, LC/MS/MS assay","[6]; single SC 6 mg/kg, 120 h",56.340 mU/μl
same,"specific activity in plasma, LC/MS/MS assay","[6]; single SC 6 mg/kg, 192 h",24.190 mU/μl
same,"specific activity in plasma, LC/MS/MS assay","[6]; single SC 6 mg/kg, 240 h",14.440 mU/μl
same,"specific activity in plasma, LC/MS/MS assay","[6]; single SC 6 mg/kg, 336 h",4.784 mU/μl
